Test results from PMC5611513, “Structure-Based Prototype Peptides Targeting the Pseudomonas aeruginosa Type VI Secretion System Effector as a Novel Antibacterial Strategy” (Frontiers in Cellular and Infection Microbiology, 2017).

System: E. coli BL21 (DE3)
Test: Cell-toxicity assay, spot growth on LB agar
Format: cell-based, Escherichia coli
Conditions: E. coli BL21 (DE3), 0.045 mM IPTG, 24 h
Experimental: Cell-toxicity assay was carried as previously described with minor modification (Jiang et al., [2016]). […] A 2 μl bacterial dilution was spotted onto LB agar plate containing 0.045 mM IPTG. Images were taken after 24 h growth.
(A) Diagrams of TplE, TplE-TplEi and “L” peptide expressing constructs. Expression of vector sequence and “L” peptide mutant with the PelB signal peptide was used as a control. […] A 10-fold serial dilution of overnight culture was spotted on LB agar plates from left to right. The experiments were performed at least 3 times.

Row | Molecule | effect of co-expression of TplEi on TplE-dependent growth inhibition (TplE-TplEi co-expressed) | growth of E. coli on periplasmic expression of TplE (periplasmic-targeted TplE alone)
1 | TplEi: cognate periplasmic immunity protein that neutralizes TplE (protein) CTSFSSSRSSSMDKTGWITHCFGRFLIDLPPDAVINAGYYLWGDRIEYLDDKPTELAARVDRLEQEWRTQRHKSKGNMFLRKIDFGNESVGLLSWSSEVASKTYLLDTYVTSKPTWHVYRWKGKVSVDREQHAVEISRALARNLRSRAPKEIPSEPGFCIDHAYIAGDSFQVERFGVGVTFPEHPGARFEFRSSTGAELNSLLERVDGFVQNMLSTFAGMETLRKGKHPVGSLPGEEYLVAGSDKGQRGYTFMWEVQGKEESLTEPNLTAGLAVLERSNENGKPPPPAFKSDKEALELWDTIVDSIRVRPTSSSPRGGNAGPSPAPKPATPGGQTLGDHYVYEEFLSSLKPKDSWLDDL | repressed the TplE-dependent growth inhibition | 
2 | TplE: H2-T6SS-dependent antibacterial lipolytic toxin (lipase effector) of P. aeruginosa (protein) MSSEPLEPNQDVIIPRSRDSLGRPVYKAQLTRTDNQSEKVALIRQTAPLPVIFIPGIMGTNLRNKADKSEVWRPPNGLWPMDDLFASIGALWTWAWRGPKARQELLKAEQVEVDDQGTIDVGQSGLSEEAARLRGWGKVMRSAYNPVMGLMERRLDNIVSRRELQAWWNDEALSPPGDQGEEQGKVGPIDEEELLRASRYQFDVWCAGYNWLQSNRQSALDVRDYIENTVLPFYQKECGLDPEQMRRMKVILVTHSMGGLVARALTQLHGYERVLGVVHGVQPATGSSTIYHHMRCGYEGIAQVVLGRNAGEVTAIVANSAGALELAPSAEYREGRPWLFLCDAQGQVLKDIDGKPRAYPQNQDPYEEIYKNTTWYGLVPEQNSQYLDMSDKKEGLRVGPRDNFEDLIDSIANFHGELSAAGYHSETYAHYGADDSRHSWRDLIWKGDPTPLETPGATLNDDENGTYNSWFRRGLPTIVQGPLETGNPLDASGSGGDETVPTDSGQAPALAGVKASFRHGSKGKGQANTKRGYEHQESYNDARAQWAALYGVIKITQLADWHPNDKGGT |  | significant inhibition of growth
